Assay results: publication PMC10700546, “Atg18 oligomer organization in assembled tubes and on lipid membrane scaffolds” (Nature Communications, 2023)
Substitutions are numbered along the chain they refer to. In names and notes the source's numbering stands. Values belong to the binder of their own block, whether it stands above or below them.

How the values were obtained:
[1] = target: T1, Autophagy-related protein 18 (Atg18), wildtype (Saccharomyces cerevisiae), P43601; experiment: single-particle cryo-EM, 2D classification; 18 uM soluble Atg18 in high-salt buffer (50 mM TRIS, 500 mM NaCl, 10 mM KPO4, 1 mM DTT, pH 7.5); monomer and dimer classes; details: remark: other sources report otherwise
T1 chain: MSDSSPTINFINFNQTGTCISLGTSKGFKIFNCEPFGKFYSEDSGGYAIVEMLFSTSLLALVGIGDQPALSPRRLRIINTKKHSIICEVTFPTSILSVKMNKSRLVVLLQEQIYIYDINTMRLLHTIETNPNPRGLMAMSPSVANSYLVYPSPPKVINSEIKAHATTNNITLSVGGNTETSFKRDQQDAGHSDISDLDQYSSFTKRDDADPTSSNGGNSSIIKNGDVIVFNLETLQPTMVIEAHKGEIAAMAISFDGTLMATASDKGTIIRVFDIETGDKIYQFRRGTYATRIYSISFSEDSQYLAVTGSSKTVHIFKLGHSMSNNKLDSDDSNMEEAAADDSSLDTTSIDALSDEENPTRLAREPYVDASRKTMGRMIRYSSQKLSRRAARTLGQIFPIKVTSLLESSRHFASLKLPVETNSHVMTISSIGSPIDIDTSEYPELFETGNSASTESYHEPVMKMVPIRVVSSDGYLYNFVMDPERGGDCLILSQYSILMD

[2] = target: the molecule itself; experiment: cryo-EM structure; helical reconstruction of Atg18 tubes; 20 uM tube solution in tube buffer (20 mM HEPES, 100 mM KAc, 1 mM DTT, pH 7.2); self-assembly into a helical lattice

stoichiometry N [1]: 2
B1: Autophagy-related protein 18 (Atg18), wildtype, P43601 1-500 (natural protein)
chain: T1 chain

B2: Atg18-P72A/R73A (natural protein, Saccharomyces cerevisiae, UniProt P43601 1-500, looked up)
chain: T1 chain with P72A, R73A
notes: Atg18, Saccharomyces cerevisiae, Uniprot ID P43601, with P72A and R73A; Same construct as the wild type apart from the two substitutions; also called Atg18-PR72AA; PR72AA; source: E. coli BL21(DE3), purified (Ni-NTA, TEV cleavage, second Ni-NTA, gel filtration); not shown: 6xHis, N-terminal, cleaved
binding result [2]: binds
